Test results: the nanobody polyreactivity screen of Harvey et al. (2022)

experiment: yeast display, Sf9 membrane polyspecificity reagent, FACS + sequencing; frameworks hold sequencing errors
In short: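 Polyreactivity labels are assigned by the sorting gate from which each nanobody was recovered. The gates were low and high (top ~1%), set on anti-HA fluorescence for expression and streptavidin fluorescence for reagent binding. Before sorting, galactose-induced (36–48 hours) yeast display cells were stained for 1 hour at 4 °C with 10% biotinylated, detergent-solubilized Sf9 membrane reagent.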

Row | Sequence | polyreactivity (PSR sort gate)
1 | QVQLVESGGGLVQAGGSLRLSCAASGLIFYRNAMGWYRQAPGKERELVAAISKNGGNTYYADSVKGRFTISRDNAKNTVYLQMYSLKPEDTAVYYCAARELYGPFGYWGQGTQVTVSS | high polyreactivity
2 | QVQLVESGGGLVQAGGSLRLSCAASGLIFYRNAMGWYRQAPGKERELVAGISASGGRTYYADSVNGRFTISRDNAKNTVYLQMNSLKPEDTAVYYCNRPSIYRYPQRLLGNFWGQGTQVTVSS | high polyreactivity
3 | QVQLVESGGGLVQAGGSLRLSCAASGLIFYRYAMGWYRQAPGKERELVAAISRSGSSTYYADSVKGRFTISRDNAKNTFYLQINSLKPEDTAVYYCNAGYGWIWDDRGYWGQGTQVTVSS | high polyreactivity
4 | QVQLVESGGGLVQAGGSLRLSCAASGLIFYRYAMGWYRQAPGKERELVATISSGGSTNYADSVKGRFTISRDNAKNTVYLQMNSLKPEDTAVYYCAASRWLYYYLFEYWGQGTQGTVSS | high polyreactivity
5 | QVQLVESGGGLVQAGGSLRLSCAASGLIFYRYAMGWYRQAPRKERELVARISYRTTSTYYADSVKGRFTISRDNAKNNVYLQMNSLKPEDTAVYYCAASRFAYRVRYLFEYWGHGTQVTVSS | high polyreactivity
6 | QVQLVESGGGLVQAGGSLRLSCAASGLIFYRYTMGWYRQAPGKERELVAAIDDSDTSTYYADSVKGRFTISRDNAKNTVYLQMNSLKPEDTAVYYCAAVPLAPYAVRSRLDFDYWGQGTQVTVSS | low polyreactivity
7 | QVQLVESGGGLVQAGGSLRLSCAASGLIFYRYTMGWYRQAPGKERELVAAITRSGSTYYADSVKGRFTISRDNAKNTVYLQMNSLKPEDTAVYYCAADVTLYYRGRRYYYWGQGTQVTVSS | high polyreactivity
8 | QVQLVESGGGLVQAGGSLRLSCAASGLIFYSYAMGWYRQAPGKERELVAAINGGGGSTYYADSVKGRFTISRDNAKNTVYLQMNSLKPEDTAVYYCAAVRSIVDWGLMYYWGQGTQVTVSS | high polyreactivity
9 | QVQLVESGGGLVQAGGSLRLSCAASGLIFYVYAMGWYRQAPGKERELVAAIRGSGARTYYADSVKGRFTISRDNAKNTVYLQMNSLKPEDTAVYYCNARQRYRPSYDYWGQGTQVTVSS | high polyreactivity
10 | QVQLVESGGGLVQAGGSLRLSCAASGLIFYWYTMGWYRQAPGKEREFVAAITWGGGGTYYADSVKGRFTISRDKAKNTVYLQMNSLKPEDTAVYYCAAEEQVVKAHGDYWGQGTQVTVSS | low polyreactivity
11 | QVQLVESGGGLVQAGGSLRLSCAASGLIFYYYAIGWYRQAPGKERELVAAITTGGGTYYADSVKGRFSISRVNAKNTVYLQMNSLKPEDTAVYYCAVYYRSYWGYEYWGQGTQVTVSS | high polyreactivity
12 | QVQLVESGGGLVQAGGSLRLSCAASGLIFYYYAMGWYRPAPGKERELVAAISRRGGSTYYADSVKGRFTISRDNAKNTVYLQMNSLKPEDTAVYYCNKYRSYWSGPSYWREYDYWGQGTQVTVSS | high polyreactivity
13 | QVQLVESGGGLVQAGGSLRLSCAASGLIFYYYAMGWYRQAPGKERELVAAITWTAGSTSYADSVKGRFTISRDNAKNTVYLQMNSLKPEDTAVYYCAADYRHDTFSNEYDYWGQGTQVTVSS | low polyreactivity
14 | QVQLVESGGGLVQAGGSLRLSCAASGLIIRYYDMGWYRQAPGKEREFVAAITWNGGSTYADSVKGRFTISRDNAKNTVYLQMNSLKPEDTAVYYCAADLSYWDDFDYWGHGTQVTVSS | low polyreactivity
15 | QVQLVESGGGLVQAGGSLRLSCAASGLIIYRYAMGWYRQAPGKERELVAAISSTGGRTYYADSVKGRFTISRDNAKNTVYLQMNSLKPEDTAVYYCNADYGWKYVQYYYWGQGTQVTVSS | high polyreactivity
16 | QVQLVESGGGLVQAGGSLRLSCAASGLIIYRYGMGWYRQAPGKERELVAAISYSGSSSYYADSVKGRFTISRDNAKNTVYLQMNSLKPEDTAVYYCAARHGPRSEAMYYWGQGTQVTVSS | high polyreactivity
17 | QVQLVESGGGLVQAGGSLRLSCAASGLIIYYYAMGWYRQAPGKERELVAAISINGGSTYYADSVKGRFTISRDNAKNTVYLQMNSLIPEDTAVYYCAAFRRRMEYWGQGTQVTVSS | high polyreactivity
18 | QVQLVESGGGLVQAGGSLRLSCAASGLILDGNVMGWYRQAPGKERELVAAINTSGGSTYYADSVKGRFTISRDNAKNTVYLQMNSLKPEDTAVYYCAARYPSDYDYWGQGTQVTVSS | low polyreactivity
19 | QVQLVESGGGLVQAGGSLRLSCAASGLILRKYAMGWYRQAPGKEREFVAAITQTGSRTYYADSVKGRFTISRDNAKNTVYLQMNSLKPEDTAVYYCNAVNYRSSRDSGYWGQGTQVTVSS | high polyreactivity
20 | QVQLVESGGGLVQAGGSLRLSCAASGLILRRYAMGWYRQAPGKDRELVAAISWSGGRTYYADSVKGRFTISRDNAKNTVYLQMISLKPEDTAVYYCAAGYIYWYYSYDYWGQGTQGTVSS | high polyreactivity
21 | QVQLVESGGGLVQAGGSLRLSCAASGLILSAYAMGWYRQAPGKERELVAAISKRGGSTYYADSVKGRFTISRDNAKNTVYSQMNSLKPEDTAVYYCAADYTKHYWGQGTQVTVSS | high polyreactivity

Row | Sequence | polyreactivity (PSR sort gate)
22 | QVQLVESGGGLVQAGGSLRLSCAASGLILSTYAMGWYRQAPGKERELVAAITWRSGSTYYADSVKGRFTISRDNAKNTVYLQMNSLKPEDTAVYYCNVAPTFPYNGYEYWGQGTQVTVSS | high polyreactivity
23 | QVQLVESGGGLVQAGGSLRLSCAASGLILVYYAMGWYRQAPGKERELVAAITPGGSTKYADSVKGRFTISRDNAKNTVYFQMNSLKPEDTAVYYCAVDGDWHEPGNYIYEYDYWGQGTQVTVSS | low polyreactivity
24 | QVQLVESGGGLVQAGGSLRLSCAASGLILYHYAMGWYREAPGKERELVAAISSGGITHYADSVKGRFTISRDNAKNTVYLQMNILKPEDNAVYYCNAVSYYWHDFDYWGQGTQVTVSS | high polyreactivity
25 | QVQLVESGGGLVQAGGSLRLSCAASGLILYSYAMGWYRQAPGKERELVADISSGGITNYADSVKGRFTISRDNAKNTVYLQMNSLKPEDTAFYYCNADSYGGNLYIWEYYYWGQGTQVTVSS | low polyreactivity
26 | QVQLVESGGGLVQAGGSLRLSCAASGLILYSYAMGWYRQAPGKERELVADISSGGITNYADSVKGRFTISRDNAKNTVYLQMNSLKPEDTAVYYCAADTRPVNYILYDYWGQGTQVTVSS | low polyreactivity
27 | QVQLVESGGGLVQAGGSLRLSCAASGLILYSYTMGRYRHAPGKERELVAVISRSGTSTYYADSVKGRFTISRDNAKNTVYLQMNSLKREDTSFYFCAALSRSGPYAYEYWGQGTQVSVSS | high polyreactivity
28 | QVQLVESGGGLVQAGGSLRLSCAASGLIQPYYTMGWYRQAPGKERELVAAIRRTTGSTFYADSVKGRFTISRDNAKNTVYLQMNSLKPEETAVYYCNVRRTPYSHWTGGGMDYWGQGTQVTVSS | high polyreactivity
29 | QVQLVESGGGLVQAGGSLRLSCAASGLISLYYAMGWYRQAPGKERELVARITGSGGDTYYADSVKGRFTISRDNAKNTVYLQMNSLKPEDTAVSYCAAPALDWGQGTQVTVSS | low polyreactivity
30 | QVQLVESGGGLVQAGGSLRLSCAASGLISRINAMGWYRQAPGKERELVAAISSGGSTNYADSVKGRFTISRDNAKNTVYLQMNSLKPEDTAVYYCAAGYIRKYSAFRYNYWGQGTQVTVSS | high polyreactivity
31 | QVQLVESGGGLVQAGGSLRLSCAASGLISRRNAMGWYRQAPGKERELVAAISTGSSTNYADSVKGRFTLSRDNAKNTVYLQMNSLKPEDSAVYYCAATQYWWSTLGIRDDYWGQGTQVTVSS | low polyreactivity
32 | QVQLVESGGGLVQAGGSLRLSCAASGLLFGRNVMGWYRQGPGKERELVAAISWSGGRTYYADSVKGRFTISRDNAKNTVYLQMNSLKPEDTAVYYCAADDGPGFDYWGQGTQVTESS | high polyreactivity
33 | QVQLVESGGGLVQAGGSLRLSCAASGLNFKLYAMGWYRQAPGKEREFVATITGIGGSTYYADSVKGRFTISRDNAKNTVYLQMNSLKPEVTAVYYCAGDAWFLPYNYWGQGTQVTVSS | low polyreactivity
34 | QVQLVESGGGLVQAGGSLRLSCAASGLNFSGYAMGWYRQAPGKESEMVAAINSGTSTTYADSVKARFTISRDNAKNTVYLQMNSMKPDDTAVYSCSATLEGGWWATYGSDYWGRGTQVTVSS | low polyreactivity
35 | QVQLVESGGGLVQAGGSLRLSCAASGLNFSHYTMGWYRQAPGKERELVAAITSSGGSTYYADSVKGRFTISRDNGKNTVYLQMNSLKPVDTAVYYCNKALTSKDYPVRTVERDYWGQGTQVTVSS | low polyreactivity
36 | QVQLVESGGGLVQAGGSLRLSCAASGLNFTYNAMGWSRQAPGKESELVAAITRSGGSTYYADSVKGRFTISRDNAKNTVYLQMNSLKPEDTAVYYCAKDDSAYSKYGYWGQGTQVTVSS | low polyreactivity
37 | QVQLVESGGGLVQAGGSLRLSCAASGLNFYSNAMGWYRQAPGKERELVARISTGGSTYADSVKGRFTISRDNAKNTVYLQMNSLKPEDTAVYYCAKLPPRGIDDEYWGQGSQVTVSS | low polyreactivity
38 | QVQLVESGGGLVQAGGSLRLSCAASGLNLAQYVMGWYRQAPGKERELVAAITWRGGGTYYADSVKGRFTISRDNAKYTVYLQMNSLKPEDTAVYYCNAVLYDGYVYNPGSTDDVDYWGQGTLVTVSS | high polyreactivity
39 | QVQLVESGGGLVQAGGSLRLSCAASGLSCYPYAMGWYRQAPGKEMELVAAITSGDSTYYADSVKGRFTISRDNAKNTVYLQMNSLKPVDTAVYYCAKPDWVEVVTDFEYWGQGTQVTVSS | low polyreactivity
40 | QVQLVESGGGLVQAGGSLRLSCAASGLSSLRMLWDGIDRRLGKKGSWLPLITSGGDSTNYADSVKGRFTISRDIAKNTVYLQMNSLKPEDTAVYYCAADLDYPYGYWGQGTQVTVSS | low polyreactivity
41 | QVQLVESGGGLVQAGGSLRLSCAASGLTCGKYAMGWYRQAPGKERELVAAINSSGGSTYYADSVKGRFTISRDNAKNTVYLQMNSLKPEDTAVYYCAVAVYRLIYFEYNYWGQGTQVTVSS | low polyreactivity
